Experimental data taken from patent US20010049357A1, “Use of Hsp27 as an anti-inflammatory agent” (priority 1999, published 2001).

B1: Hsp 60: Human 60-kDa heat-shock protein, member of the large Hsp family (protein, UniProt P10809 27-573, looked up)
60 kDa heat shock protein, …: AKDVKFGADARALMLQGVDLLADAVAVTMGPKGRTVIIEQSWGSPKVTKDGVTVAKSIDLKDKYKNIGAKLVQDVANNTNEEAGDGTTTATVLARSIAKEGFEKISKGANPVEIRRGVMLAVDAVIAELKKQSKPVTTPEEIAQVATISANGDKEIGNIISDAMKKVGRKGVITVKDGKTLNDELEIIEGMKFDRGYISPYFINTSKGQKCEFQDAYVLLSEKKISSIQSIVPALEIANAHRKPLVIIAEDVDGEALSTLVLNRLKVGLQVVAVKAPGFGDNRKNQLKDMAIATGGAVFGEEGLTLNLEDVQPHDLGKVGEVIVTKDDAMLLKGKGDKAQIEKRIQEIIEQLDVTTSEYEKEKLNERLAKLSDGVAVLKVGGTSDVEVNEKKDRVTDALNATRAAVEEGIVLGGGCALLRCIPALDSLTPANEDQKIGIEIIKRTLKIPAMTIAKNAGVEGSLIVEKIMQSSSEVGYDAMAGDFVNMVEKGIIDPTKVVRTALLDAAGVASLLTTAEVVVTEIPKEEKDPGMGAMGGMGGGMGGGMF
B2: Hsp25: a murine analogue of Hsp27 (protein, UniProt P14602 1-209, looked up)
Heat shock protein beta-1: MTERRVPFSLLRSPSWEPFRDWYPAHSRLFDQAFGVPRLPDEWSQWFSAAGWPGYVRPLPAATAEGPAAVTLAAPAFSRALNRQLSSGVSEIRQTADRWRVSLDVNHFAPEELTVKTKEGVVEITGKHEERQDEHGYISRCFTRKYTLPPGVDPTLVSSSLSPEGTLTVEAPLPKAVTQSAEITIPVTFEARAQIGGPEAGKSEQSGAK

Key:
[1] = system: Mono Mac 6, a human monocyte cell line; details: reference 7; cited from earlier work
[2] = Adverse effect of Hsp 25 in normal rats; format: in vivo; details: 10 μg in normal rats (~250 gm body weight)
Description: Studies were performed to analyze the adverse effect of Hsp 25 (a murine analogue of Hsp27 ) in rats. […] To examine the effects in an animal model, the cecal ligation and puncture model (CLP) in rats can be used. (Chaudry, et al, 1993, In: Schlag, G. and Redl, H. (Eds), Pathophysiology of shock, Sepsis, and Organ Failure. Springer-Verlag, pp. 1048-1059.) CLP induces sepsis in rats. Hsp25 is administered to the CLP animals and the anti-inflammatory effect of Hsp25 in CLP rats is evaluated. The effectiveness of Hsp25 in simultaneously inducing IL-10 and IL-12 in human monocytes in the rat model, is reasonably predictive of the efficacy of Hsp27 as an anti-inflammatory agent in humans.

| Molecule | TNFα induced [1] | adverse effects [2] |
| --- | --- | --- |
| B1 | approximately 750 pg/ml | – |
| B2 | – | did not induce any adverse effects |
